The conditions of data set [1]: rat, in vivo, iv.
Experimental: The solution was administered by i.v. injection to cannulated male Sprague Dawley rats at 100 μL/100 g body weight. A single animal was used for a complete time course, repeated in duplicate.
Rat serum samples were thawed on ice, and 200 μL was adjusted to pH ˜5.5 by addition of 5 μL of 2M acetic acid.
Proteins were precipitated from 50 μL of acidified rat serum by addition of 150 μL of cold MeOH containing 40 μg/mL Fmoc-Lys (DNP)OH as an internal standard for volume deviations. The samples were kept on ice for 2 hours and centrifuged at 14,000 rpm for 10 min at 4° C. The supernatant was analyzed on a Shimadzu™ HPLC with a Phenomenex® Jupiter® C18 300A 5 μm column (4.6×150 mm) at 40° C. The mobile phase consisted of H2O/0.1% TFA (Buffer A) and ACN/0.1% TFA (Buffer B) at 1 mL/min. […] Quantitation was performed by comparison of peak areas to standard solutions of mPEG-coumarin after MeOH precipitation in rat serum (Sigma-Aldrich) as above. Any volume deviations were corrected using the peak area of the Fmoc-Lys (DNP)OH internal standard in each sample.
Serum samples were treated with 2 volumes of acetonitrile (ACN) and centrifuged. The supernatant was dried, reconstituted in 1% formic acid and applied to HPLC (below). The sample was eluted by a water-ACN gradient containing 1% formic acid. […] HPLC-MS/MS analyses were carried out on a Sciex™ API-5500 mass spectrometer coupled with a Shimadzu™ HPLC system. The Shimadzu™ HPLC system consisted of two LC-30AD HPLC pumps and a SIL-30AC autosampler with a 100 μL loop installed. The chromatographic separations were achieved on a Jupiter® (Phenomenex®) 5 μm C18, 300 Å, HPLC column, 2.0×150 mm, with mobile phase gradients. The mass spectrometer was operated in positive ESI mode and the resolution setting used was unit for both Q1 and Q3. […] Peak-area integrations were performed using Analyst software (version 1.5.2) from AB Sciex™.
The format of data set [2] is physicochemical. As to conditions: for t1/2 @ pH 7.4: buffer; for Rate of exenatide release: 50 μM conjugate. The protocol:
Release rates were determined to be:

Where two headings read alike, the source gives them in different places.

On to “Phenyl-SO2: DBCO-Lys(DEAC)-[GL4-400] 40 kDa PEG conjugated to N-[7-azido-1-(phenylsulfonyl)-2-heptyloxycarbonyl]-exenatide”, for which, in data set [1], the Conjugate clearance rate was determined as 0.015 h⁻¹, the “Conjugate clearance t1/2” value worked out at 46 h and the “Plasma half-life of the conjugate” value stood at 28 h. Moreover, the “t1/2 @ pH 7.4” value in data set [2] turned out to be 133 h. Also, the “Rate of exenatide release” value in data set [2] (pH 9.5, 100 mM sodium borate) is “.00726 h⁻¹”.

For “CH3—SO2: DBCO-Lys(DEAC)-[GL4-400] 40 kDa PEG conjugated to N-[7-azido-1-(methylsulfonyl)-2-heptyloxycarbonyl]-exenatide”, the “t1/2 @ pH 7.4” value in data set [2] is on record as 483 h. Further, in data set [2] (pH 9.5, 100 mM sodium borate), the “Rate of exenatide release” value is “.00301 h⁻¹”.

For “4-chlorophenyl-SO2: DBCO-Lys(DEAC)-[GL4-400] 40 kDa PEG conjugated to N-[7-azido-1-(4-chlorophenylsulfonyl)-2-heptyloxycarbonyl]-exenatide”, the “t1/2 @ pH 7.4” value in data set [2] came out at 59 h. Moreover, in data set [2] (pH 8.5, 100 mM bicine), the “Rate of exenatide release” value was “.00248 h⁻¹”.

The values are drawn from patent US20140256626A1 (priority 2011, published 2014).
